According to patent US20170183667A1 (ANAEROPHARMA SCIENCE, published 2017):

T1: Recombinant Mouse PD-1 Fc Chimera (R&D Systems) (mouse, UniProt Q02242 25-167)
T1 construct: Bought reagent; also called mPD-1; Fc part of the bought chimera not given, not described
T1 sequence (looked up): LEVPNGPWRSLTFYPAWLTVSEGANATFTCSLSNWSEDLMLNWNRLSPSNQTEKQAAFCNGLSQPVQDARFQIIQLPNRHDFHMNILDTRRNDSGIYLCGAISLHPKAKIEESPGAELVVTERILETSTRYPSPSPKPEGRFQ

T2: Recombinant Human CTLA-4-Fc Chimera, carrier-free (BioLegend) (human, UniProt P16410 36-161)
T2 construct: Bought reagent; also called hCTLA-4; Fc part of the bought chimera not given, not described
T2 sequence (looked up): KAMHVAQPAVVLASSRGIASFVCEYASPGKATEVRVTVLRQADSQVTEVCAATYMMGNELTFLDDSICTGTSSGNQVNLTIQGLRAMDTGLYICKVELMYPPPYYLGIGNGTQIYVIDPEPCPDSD


Columns and labels:
[1] = target: T3, Recombinant Human PD-1 Fc Chimera (R&D Systems) (human, UniProt Q15116 25-167); assay: ELISA, hPD-1 Fc chimera immobilised, scFv 10 ng/mL
T3 construct: Bought reagent; also called hPD-1; Fc part of the bought chimera not given, not described
T3 sequence (Q15116 25-167, change not shown): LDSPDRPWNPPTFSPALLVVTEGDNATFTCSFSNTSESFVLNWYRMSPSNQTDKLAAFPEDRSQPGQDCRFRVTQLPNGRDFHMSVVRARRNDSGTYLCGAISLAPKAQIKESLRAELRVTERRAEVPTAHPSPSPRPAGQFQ
Description: (§1) After the solution was removed, 350 μL of 1×PBS was dispensed and the solution was removed. This operation was repeated three times to carry out washing. In the above plates, 350 μL of a 1% BSA solution was dispensed and incubated at room temperature for 2 hours to carry out blocking. After removing the solution, 350 μL of 1×PBS was dispensed and the solution was removed. This operation was repeated three times to carry out washing.
(§2) Each solution (100 μL) was dispensed in the plates to which blocking treatment was already applied. […] To a blank well, a signal enhancing reagent (100 μL) alone was dispensed. After the plates were sealed and incubated at room temperature for 2 hours, immobilized hPD-1 was allowed to react with each of the scFv antibodies. After the solution was removed, 350 μL of 1×PBS was dispensed and the solution was removed. This operation was repeated three times to carry out washing.
(§3) This solution (200 μL) was dispensed in the plates. The plates were sealed and incubated at room temperature for 20 minutes. […] Absorbance at 450 nm was measured, whereas absorbance at 570 nm was measured as a control.

[2] = target: T1, Recombinant Mouse PD-1 Fc Chimera (R&D …); assay: ELISA, mPD-1 Fc chimera immobilised, scFv 100 ng/mL
Description: (§4) After the solution was removed, 350 μL of 1×PBS was dispensed and the solution was removed. This operation was repeated three times to carry out washing. In the above plates, 350 μL of a 1% BSA solution was dispensed and incubated at room temperature for 2 hours to perform blocking. After the solution was removed, 350 μL of 1×PBS was dispensed and the solution was removed. This operation was repeated three times to carry out washing.
(§5) The anti-PD-1-3 scFv antibody purified from a bacterium of the genus Bifidobacterium was diluted with a signal enhancing reagent (Signal Enhancer HIKARI, manufactured by Nacalai Tesque) to prepare solutions having a concentration of 1000 ng/mL, 100 ng/mL and 10 ng/mL. Each solution (100 μL) was dispensed in the plates to which blocking treatment was already applied. […] To blank wells, a signal enhancing reagent (100 μL) alone was dispensed. After the plates were sealed and incubated at room temperature for 2 hours, immobilized mPD-1 was allowed to react with the anti-PD-1-3 scFv antibody. After the solution was removed, 350 μL of 1×PBS was dispensed and the solution was removed. This operation was repeated three times to carry out washing.
(§6) Absorbance at 450 nm was measured, whereas absorbance at 570 nm was measured as a control.

[3] = target: T1, Recombinant Mouse PD-1 Fc Chimera (R&D …); assay: ELISA, mPD-1 Fc chimera immobilised, scFv 1000 ng/mL
Description: as §4, §5, §6

[4] = target: T3, Recombinant Human PD-1 Fc Chimera (R&D …); assay: ELISA, hPD-1 Fc chimera immobilised, scFv 1000 ng/mL
Description: as §1, §2, §3

[5] = target: T3, Recombinant Human PD-1 Fc Chimera (R&D …); assay: ELISA, hPD-1 Fc chimera immobilised, scFv 1 ng/mL
Description: as §1, §2, §3

[6] = target: T1, Recombinant Mouse PD-1 Fc Chimera (R&D …); assay: ELISA, mPD-1 Fc chimera immobilised, scFv 10 ng/mL
Description: as §4, §5, §6

[7] = target: T3, Recombinant Human PD-1 Fc Chimera (R&D …); assay: ELISA, hPD-1 Fc chimera immobilised, scFv 100 ng/mL
Description: as §1, §2, §3

[8] = target: T2, Recombinant Human CTLA-4-Fc Chimera, …; assay: ELISA, hCTLA-4-Fc chimera immobilised

Row | Binder | absorbance 450 nm (570 nm as control) [1] | absorbance 450 nm (570 nm as control) [2] | absorbance 450 nm (570 nm as control) [3] | absorbance 450 nm (570 nm as control) [4] | absorbance 450 nm (570 nm as control) [5] | absorbance 450 nm (570 nm as control) [6] | absorbance 450 nm (570 nm as control) [7] | binding result [8]
1 | anti-PD-1-2 scFv antibody purified from Bifidobacterium longum 105-A/pHuSP7L20-scFv-PD-1-2 strain (scFv, also called anti-human PD-1 antibody) scFv: DSAQTSAVVSSRSFPKASSVMQVQLQESGPGLVKPSQSLSLTCTVTGHSITSDYAWNWIRQFPGDKLEWMGYISYSGYTTYNPSLKSRVSITRDTSKNQFFLQLNSVTTEDTATYFCARDLDYGPWFAYWGQGTTVTVSSGGGGSGGGGSGGGGSDIQMTQSPASLSASVGETVTLTCRASENIHNYLAWYQQKQGKSPQLLVYNVKTLADGVPSRFSGSGSGTQYSLKINSLQPEDFGSYYCQHFWSSPWTFGGGTKLEIKRHHHHHH | 0.912 | -0.01 | 0.014 | 2.82 | 0.058 | 0.075 | 3.06 | –
2 | anti-PD-1-3 scFv antibody purified from Bifidobacterium longum 105-A/pHuSP7L20-scFv-PD-1-3 strain (scFv, also called anti-mouse PD-1 scFv antibody; mPD-1 scFv) scFv: DSAQTSAVVSSRSFPKASSVMEVRLLESGGGLVKPEGSLKLSCVASGFTFSDYFMSWVRQAPGKGLEWVAHIYTKSYNYATYYSGSVKGRFTISRDDSRSMVYLQMNNLRTEDTATYYCTRDGSGYPSLDFWGQGTQVTVSSGGGGSGGGGSGGGGSYELTQPPSASVNVGETVKITCSGDQLPKYFADWFHQRSDQTILQVIYDDNKRPSGIPERISGSSSGTTATLTIRDVRAEDEGDYYCFSGYVDSDSKLYVFGSGTQLTVLGHHHHHH | – | 0.561 | 3.11 | – | – | 0.312 | – | no binding (tested: up to 1000 ng/mL)
3 | anti-CTLA-4-1 scFv antibody purified from Bifidobacterium longum 105-A/pHuSP7L20-scFv-CTLA-4-1 strain (scFv) scFv: DSAQTSAVVSSRSFPKASSVQVQLVESGGGVVQPGRSLRLSCAASGFTFSSYGMHWVRQAPGKGLEWVAVIWYDGSNKYYADSVKGRFTISRDNSKNTLYLQMNSLRAEDTAVYYCARDPRGATLYYYYYGMDVWGQGTTVTVSSGGGGSGGGGSGGGGSDIQMTQSPSSLSASVGDRVTITCRASQSINSYLDWYQQKPGKAPKLLIYAASSLQSGVPSRFSGSGSGTDFTLTISSLQPEDFATYYCQQYYSTPFTFGPGTKVEIKHHHHHH | -0.106 | – | – | -0.038 | -0.092 | – | -0.117 | –
